Source: patent US7674604

Assays:
[1] = molecular target: LFA-1 mutant K287C/K294C (αL K287C/K294C with β2) on 293T or K562 transfectants (human) (UniProt P05107); assay: flow cytometry, K562, normalized to TS1/22
[2] = molecular target: wild-type Mac-1 (αMβ2) on 293T or K562 transfectants (human) (UniProt P05107); assay: flow cytometry on K562 stable transfectants with intact Mac-1, row 'Wild-type'
[3] = molecular target: Mac-1 mutant D294C/Q311C (with β2) on K562 transfectants (human) (UniProt P05107); assay: flow cytometry on K562 stable transfectants with intact Mac-1, row 'D294C/Q311C'
[4] = molecular target: Mac-1 mutant Q163C/Q309C (αM Q163C/Q309C with β2) on 293T or K562 transfectants (human) (UniProt P05107); assay: flow cytometry on K562 stable transfectants with intact Mac-1, row printed 'Q163/Q309C'
[5] = molecular target: LFA-1 mutant K287C/K294C (αL K287C/K294C with β2) on 293T or K562 transfectants (human) (UniProt P05107); assay: flow cytometry, 293T, normalized to TS2/4
[6] = molecular target: LFA-1 mutant L289C/K294C (αL L289C/K294C with β2) on 293T or K562 transfectants (human) (UniProt P05107); assay: flow cytometry, 293T, normalized to TS2/4
[7] = molecular target: LFA-1 single cysteine substitution mutant K287C on 293T transfectants (human) (UniProt P05107); assay: flow cytometry, 293T, normalized to TS2/4
[8] = molecular target: LFA-1 single cysteine substitution mutant K294C on 293T transfectants (human) (UniProt P05107); assay: flow cytometry, 293T, normalized to TS2/4
[9] = molecular target: LFA-1 single cysteine substitution mutant L289C on 293T transfectants (human) (UniProt P05107); assay: flow cytometry, 293T, normalized to TS2/4
[10] = molecular target: LFA-1 mutant K287C/K294C (αL K287C/K294C with β2) on 293T or K562 transfectants (human) (UniProt P05107); assay: flow cytometry, K562, normalized to TS2/4
[11] = molecular target: LFA-1 mutant L289C/K294C (αL L289C/K294C with β2) on 293T or K562 transfectants (human) (UniProt P05107); assay: flow cytometry, K562, normalized to TS2/4
[12] = molecular target: wild-type LFA-1 (αL/β2 complex) expressed on 293T or K562 transfectants (human) (UniProt P05107); assay: flow cytometry on K562 transfectants, panel 'intact LFA-1'
[13] = molecular target: isolated wild-type αL I-domain (V130-A338) expressed on K562 cells by the PDGF receptor transmembrane domain (human); assay: flow cytometry on K562 transfectants, panel 'WT I-domain (#1)'
isolated wild-type αL I-domain (V130-A338) expressed on K562 cells by the PDGF receptor transmembrane domain (human), sequence (P09619 other isoform, or with tags, fused parts or gaps): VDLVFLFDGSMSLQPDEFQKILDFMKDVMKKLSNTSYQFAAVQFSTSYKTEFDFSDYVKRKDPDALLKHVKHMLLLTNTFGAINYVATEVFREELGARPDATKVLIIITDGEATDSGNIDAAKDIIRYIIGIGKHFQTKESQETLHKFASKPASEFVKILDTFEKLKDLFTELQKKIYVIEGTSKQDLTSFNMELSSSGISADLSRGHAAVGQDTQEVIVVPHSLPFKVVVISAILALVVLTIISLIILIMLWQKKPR

[14] = molecular target: isolated K287C/K294C αL I-domain (V130-A338) expressed on K562 cells by the PDGF receptor transmembrane domain (human) (UniProt P20701); assay: flow cytometry on K562 transfectants, panel 'K287C/K294C I-domain (#1)'
isolated K287C/K294C αL I-domain (V130-A338) expressed on K562 cells by the PDGF receptor transmembrane domain (human), sequence (P20701 155-363 K312C/K319C limits assumed): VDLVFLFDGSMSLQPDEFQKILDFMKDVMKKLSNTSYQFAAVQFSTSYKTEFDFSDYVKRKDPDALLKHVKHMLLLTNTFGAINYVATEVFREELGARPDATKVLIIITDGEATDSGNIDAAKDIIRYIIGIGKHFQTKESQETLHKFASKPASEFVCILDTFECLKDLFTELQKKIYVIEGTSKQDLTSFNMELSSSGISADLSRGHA

[15] = molecular target: isolated K287C/K294C αL I-domain (V130-A338) expressed on K562 cells by the PDGF receptor transmembrane domain (human) (UniProt P20701); assay: flow cytometry on K562 transfectants, panel 'K287C/K294C I-domain (#2)'
[16] = molecular target: isolated L289C/K294C αL I-domain (V130-A338) expressed on K562 cells by the PDGF receptor transmembrane domain (human) (UniProt P20701); assay: flow cytometry on K562 transfectants, panel 'L289C/K294C I-domain (#1)'
isolated L289C/K294C αL I-domain (V130-A338) expressed on K562 cells by the PDGF receptor transmembrane domain (human), sequence (P20701 155-363 L314C/K319C limits assumed): as the sequence (P20701 155-363 K312C/K319C limits assumed) above, with C158K, L160C counted along it

[17] = molecular target: isolated L289C/K294C αL I-domain (V130-A338) expressed on K562 cells by the PDGF receptor transmembrane domain (human) (UniProt P20701); assay: flow cytometry on K562 transfectants, panel 'L289C/K294C I-domain (#2)'
[18] = molecular target: isolated wild-type αL I-domain (V130-A338) expressed on K562 cells by the PDGF receptor transmembrane domain (human); assay: flow cytometry on K562 transfectants, panel 'WT I-domain (#2)'; nothing is printed after the point
[19] = molecular target: wild-type LFA-1 (αL/β2 complex) expressed on 293T or K562 transfectants (human) (UniProt P05107); assay: flow cytometry, K562 WT (#22), ICAM-1-IgA 100 µg/ml, FITC anti-human IgA, taken after paragraph 201 as ICAM-1-IgA without CBRLFA-1/2; left column of this row, taken as no ICAM-1-IgA: 3.58
[20] = molecular target: wild-type LFA-1 (αL/β2 complex) expressed on 293T or K562 transfectants (human) (UniProt P05107); assay: flow cytometry, K562 WT (#22), ICAM-1-IgA 100 µg/ml, FITC anti-human IgA, taken after paragraph 201 as ICAM-1-IgA with CBRLFA-1/2 10 µg/ml; left column of this row, taken as no ICAM-1-IgA: 3.58
[21] = molecular target: LFA-1 mutant K287C/K294C (αL K287C/K294C with β2) on 293T or K562 transfectants (human) (UniProt P05107); assay: flow cytometry, K562 K287C K294C (#7), ICAM-1-IgA 100 µg/ml, FITC anti-human IgA, taken after paragraph 201 as ICAM-1-IgA without CBRLFA-1/2; left column of this row, taken as no ICAM-1-IgA: 3.59
[22] = molecular target: LFA-1 mutant L289C/K294C (αL L289C/K294C with β2) on 293T or K562 transfectants (human) (UniProt P05107); assay: flow cytometry, K562 L289C K294C (#6), ICAM-1-IgA 100 µg/ml, FITC anti-human IgA, taken after paragraph 201 as ICAM-1-IgA without CBRLFA-1/2; left column of this row, taken as no ICAM-1-IgA: 4.68
[23] = molecular target: LFA-1 mutant K287C/K294C (αL K287C/K294C with β2) on 293T or K562 transfectants (human) (UniProt P05107); assay: flow cytometry, K562 K287C K294C (#7), ICAM-1-IgA 100 µg/ml, FITC anti-human IgA, taken after paragraph 201 as ICAM-1-IgA with CBRLFA-1/2 10 µg/ml; left column of this row, taken as no ICAM-1-IgA: 3.59
[24] = molecular target: LFA-1 mutant L289C/K294C (αL L289C/K294C with β2) on 293T or K562 transfectants (human) (UniProt P05107); assay: flow cytometry, K562 L289C K294C (#6), ICAM-1-IgA 100 µg/ml, FITC anti-human IgA, taken after paragraph 201 as ICAM-1-IgA with CBRLFA-1/2 10 µg/ml; left column of this row, taken as no ICAM-1-IgA: 4.68

soluble ICAM-1-IgA chimera containing the 5 Ig domains of human ICAM-1, sequence (P05362 28-480, stated change not applied): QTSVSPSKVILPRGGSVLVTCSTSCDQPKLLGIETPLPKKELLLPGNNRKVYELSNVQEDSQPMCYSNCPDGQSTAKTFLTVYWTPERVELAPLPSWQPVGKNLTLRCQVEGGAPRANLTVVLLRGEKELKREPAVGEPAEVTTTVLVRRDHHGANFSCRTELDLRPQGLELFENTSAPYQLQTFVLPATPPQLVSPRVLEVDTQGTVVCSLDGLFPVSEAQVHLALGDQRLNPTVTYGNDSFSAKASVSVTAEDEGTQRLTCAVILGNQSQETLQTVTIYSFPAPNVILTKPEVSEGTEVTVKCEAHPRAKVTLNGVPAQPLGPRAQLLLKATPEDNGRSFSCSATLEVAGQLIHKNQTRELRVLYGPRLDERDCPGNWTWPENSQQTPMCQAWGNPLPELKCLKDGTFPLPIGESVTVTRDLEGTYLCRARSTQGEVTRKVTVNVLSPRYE

monoclonal antibody CBRLFA-1/9
% wild-type binding (% of wild-type) [1]: 84.7

monoclonal antibody CBRM1/32
mean fluorescent intensity [2]: 120 | mean fluorescent intensity [3]: 81 | mean fluorescent intensity [4]: 115

monoclonal antibody F8.8
% wild-type binding (% of wild-type) [5]: 93.7 | % wild-type binding (% of wild-type) [6]: 83.6 | % wild-type binding (% of wild-type) [7]: 95.9 | % wild-type binding (% of wild-type) [8]: 95.5 | % wild-type binding (% of wild-type) [9]: 99.6 | % wild-type binding (% of wild-type) [10]: 102 | % wild-type binding (% of wild-type) [11]: 93.9

anti-β2 (CD18) monoclonal antibody TS1/18
% wild-type binding (% of wild-type) [5]: 99.8 | % wild-type binding (% of wild-type) [6]: 95.7 | % wild-type binding (% of wild-type) [7]: 87.9 | % wild-type binding (% of wild-type) [8]: 108 | % wild-type binding (% of wild-type) [9]: 87.3 | % wild-type binding (% of wild-type) [10]: 97.4 | % wild-type binding (% of wild-type) [11]: 106

mouse anti-human αL (CD11a) monoclonal antibody TS1/22
% wild-type binding (% of wild-type) [5]: 95.8 | % wild-type binding (% of wild-type) [6]: 91 | % wild-type binding (% of wild-type) [7]: 103 | % wild-type binding (% of wild-type) [8]: 92.2 | % wild-type binding (% of wild-type) [9]: 96.2 | % wild-type binding (% of wild-type) [10]: 93.1 | % wild-type binding (% of wild-type) [11]: 110 | mean fluorescent intensity [12]: 104 | mean fluorescent intensity [13]: 67.3 | mean fluorescent intensity [14]: 66.3 | mean fluorescent intensity [15]: 84.6 | mean fluorescent intensity [16]: 71.1 | mean fluorescent intensity [17]: 151 | mean fluorescent intensity [18]: 205

mouse anti-human αL (CD11a) monoclonal antibody TS2/14
% wild-type binding (% of wild-type) [5]: 85.5 | % wild-type binding (% of wild-type) [6]: 83.3 | % wild-type binding (% of wild-type) [7]: 103 | % wild-type binding (% of wild-type) [8]: 103 | % wild-type binding (% of wild-type) [9]: 100 | % wild-type binding (% of wild-type) [10]: 95.4 | % wild-type binding (% of wild-type) [11]: 103

mouse anti-human αL (CD11a) monoclonal antibody TS1/12
% wild-type binding (% of wild-type) [5]: 88.7 | % wild-type binding (% of wild-type) [6]: 102 | % wild-type binding (% of wild-type) [7]: 99.3 | % wild-type binding (% of wild-type) [8]: 93.7 | % wild-type binding (% of wild-type) [9]: 104 | % wild-type binding (% of wild-type) [10]: 87.3 | % wild-type binding (% of wild-type) [11]: 106

soluble ICAM-1-IgA chimera containing the 5 Ig domains of human ICAM-1 (from UniProt P05362 28-480) (Fc fusion)
mean fluorescent intensity [19]: 5.26 | mean fluorescent intensity [20]: 4.89 | mean fluorescent intensity [21]: 24.8 | mean fluorescent intensity [22]: 5.36 | mean fluorescent intensity [23]: 41.3 | mean fluorescent intensity [24]: 4.32

monoclonal antibody CLBLFA-1/1
% wild-type binding (% of wild-type) [10]: 96.5 | % wild-type binding (% of wild-type) [11]: 100

monoclonal antibody CBRM1/5
mean fluorescent intensity [2]: 25 | mean fluorescent intensity [3]: 262 | mean fluorescent intensity [4]: 208

monoclonal antibody S6F1
% wild-type binding (% of wild-type) [5]: 89.4 | % wild-type binding (% of wild-type) [6]: 95.3 | % wild-type binding (% of wild-type) [7]: 98.3 | % wild-type binding (% of wild-type) [8]: 92.3 | % wild-type binding (% of wild-type) [9]: 86.4 | % wild-type binding (% of wild-type) [10]: 97.4 | % wild-type binding (% of wild-type) [11]: 85.7

mouse anti-human αL (CD11a) monoclonal antibody TS2/6
% wild-type binding (% of wild-type) [5]: 84.9 | % wild-type binding (% of wild-type) [6]: 78.6 | % wild-type binding (% of wild-type) [7]: 91.4 | % wild-type binding (% of wild-type) [8]: 91.7 | % wild-type binding (% of wild-type) [9]: 88.2 | % wild-type binding (% of wild-type) [10]: 89.2 | % wild-type binding (% of wild-type) [11]: 95.9

mouse anti-human αL (CD11a) monoclonal antibody TS1/11
% wild-type binding (% of wild-type) [5]: 94.4 | % wild-type binding (% of wild-type) [6]: 93.7 | % wild-type binding (% of wild-type) [10]: 96 | % wild-type binding (% of wild-type) [11]: 105

anti-β2 (CD18) monoclonal antibody CBRLFA-1/7
% wild-type binding (% of wild-type) [5]: 95.3 | % wild-type binding (% of wild-type) [6]: 91.7 | % wild-type binding (% of wild-type) [10]: 95.2 | % wild-type binding (% of wild-type) [11]: 97.2

monoclonal antibody 25-3-1
% wild-type binding (% of wild-type) [5]: 93.1 | % wild-type binding (% of wild-type) [6]: 90.9 | % wild-type binding (% of wild-type) [10]: 88.5 | % wild-type binding (% of wild-type) [11]: 85.7

monoclonal antibody BL5
% wild-type binding (% of wild-type) [5]: 92.4 | % wild-type binding (% of wild-type) [6]: 85.8 | % wild-type binding (% of wild-type) [7]: 93.3 | % wild-type binding (% of wild-type) [8]: 88.3 | % wild-type binding (% of wild-type) [9]: 92.4 | % wild-type binding (% of wild-type) [10]: 92.4 | % wild-type binding (% of wild-type) [11]: 97.6

monoclonal antibody May.035
% wild-type binding (% of wild-type) [5]: 92.6 | % wild-type binding (% of wild-type) [6]: 82.1 | % wild-type binding (% of wild-type) [7]: 95.8 | % wild-type binding (% of wild-type) [8]: 106 | % wild-type binding (% of wild-type) [9]: 95.4 | % wild-type binding (% of wild-type) [10]: 92.6 | % wild-type binding (% of wild-type) [11]: 101
